# PMC8562663
# What was measured:
# [1] = target: membrane-bound lytic murein transglycosylase A (MltA) from Acinetobacter baumannii, N-terminally truncated (Gly23-Asn388), wild type (Acinetobacter baumannii); test: SEC-MALS; Ni-NTA-purified protein on Superdex 200 10/300, 20 mM Tris-HCl pH 8.0, 150 mM NaCl, 0.3 ml/min, 25°C; DAWN TREOS detector; self-association
# [2] = target: abMltA triple mutant (D151K, Y162K or Y162W, E164K); test: SEC-MALS; details: read off a plot
Substance,stoichiometry N [1],other: molecular mass (MALS) [2]
"membrane-bound lytic murein transglycosylase A (MltA) from Acinetobacter baumannii, N-terminally truncated (Gly23-Asn388), wild type (enzyme)",2,
"membrane-bound lytic murein transglycosylase A (MltA) from Acinetobacter baumannii, N-terminally truncated (Gly23-Asn388), wild type D151K; Y162W; E164K",,45000 Da
